Source: paper PMC8357123, “Modeling of DNA binding to the condensin hinge domain using molecular dynamics simulations guided by atomic force microscopy” (PLoS Computational Biology, 2021)

Target: T1, Smc4 (S. cerevisiae (budding yeast), UniProt Q12267 1-1418)
T1 construct: Smc4, subunit of the budding yeast condensin complex; The holo-complex was purified over HisTrap and Strep-Tactin; also called condensin subunit Smc4
T1 sequence (looked up): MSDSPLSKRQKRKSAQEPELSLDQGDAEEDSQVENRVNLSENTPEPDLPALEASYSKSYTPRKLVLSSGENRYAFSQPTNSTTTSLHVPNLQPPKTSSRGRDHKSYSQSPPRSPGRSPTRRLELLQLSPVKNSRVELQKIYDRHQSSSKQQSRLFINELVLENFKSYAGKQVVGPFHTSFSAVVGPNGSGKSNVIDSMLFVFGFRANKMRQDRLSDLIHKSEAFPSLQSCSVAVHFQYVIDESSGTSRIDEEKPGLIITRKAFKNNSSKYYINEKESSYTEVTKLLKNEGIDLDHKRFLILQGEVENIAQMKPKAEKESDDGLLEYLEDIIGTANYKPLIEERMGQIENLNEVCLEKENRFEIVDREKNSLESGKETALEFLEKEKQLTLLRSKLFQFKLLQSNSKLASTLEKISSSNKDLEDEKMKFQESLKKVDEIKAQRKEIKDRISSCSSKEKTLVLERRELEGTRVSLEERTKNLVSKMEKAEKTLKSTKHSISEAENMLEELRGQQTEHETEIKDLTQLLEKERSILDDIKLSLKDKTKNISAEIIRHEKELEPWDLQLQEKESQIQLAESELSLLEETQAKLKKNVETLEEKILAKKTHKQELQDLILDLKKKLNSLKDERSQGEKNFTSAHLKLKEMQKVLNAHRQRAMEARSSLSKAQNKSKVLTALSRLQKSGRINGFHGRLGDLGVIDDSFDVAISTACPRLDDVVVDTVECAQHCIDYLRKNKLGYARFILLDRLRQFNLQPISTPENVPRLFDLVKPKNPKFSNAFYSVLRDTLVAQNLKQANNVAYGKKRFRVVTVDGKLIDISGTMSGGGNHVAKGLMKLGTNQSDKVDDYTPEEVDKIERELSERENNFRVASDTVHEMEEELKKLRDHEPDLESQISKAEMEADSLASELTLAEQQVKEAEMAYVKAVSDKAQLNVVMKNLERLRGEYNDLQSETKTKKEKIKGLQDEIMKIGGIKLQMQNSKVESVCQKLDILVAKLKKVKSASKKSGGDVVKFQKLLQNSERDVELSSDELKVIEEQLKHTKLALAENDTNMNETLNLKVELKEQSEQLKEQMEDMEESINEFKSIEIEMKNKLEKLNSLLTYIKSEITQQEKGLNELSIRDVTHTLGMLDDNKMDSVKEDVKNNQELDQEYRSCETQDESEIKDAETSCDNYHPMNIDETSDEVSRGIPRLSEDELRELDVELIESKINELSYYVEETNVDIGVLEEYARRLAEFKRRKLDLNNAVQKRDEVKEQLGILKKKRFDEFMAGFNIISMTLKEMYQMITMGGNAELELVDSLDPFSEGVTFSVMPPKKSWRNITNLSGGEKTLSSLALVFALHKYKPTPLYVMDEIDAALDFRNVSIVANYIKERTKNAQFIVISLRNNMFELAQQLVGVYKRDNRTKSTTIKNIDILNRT
Assay: high-speed atomic force microscopy (HS-AFM); 1 nM purified condensin holo-complex on bare mica in 40 mM Tris-HCl pH7.5, 125 mM KCl, 10 mM MgCl2, 1 mM DTT, 4 mM ATP; room temperature; 150 ms/frame; 36 molecules observed
Details: both partners purified

binding result: binds
B1: Smc2 (natural protein, S. cerevisiae (budding yeast), UniProt P38989 1-1170, looked up)
chain: MKVEELIIDGFKSYATRTVITDWDPQFNAITGLNGSGKSNILDAICFVLGIASMSTVRASSLQDLIYKRGQAGVTKASVTIVFDNTDKSNSPIGFTNSPQISVTRQVVLGGTSKYLINGHRAPQQSVLQLFQSVQLNINNPNFLIMQGKITKVLNMKPSEILSLIEEAAGTKMFEDRREKAERTMSKKETKLQENRTLLTEEIEPKLEKLRNEKRMFLEFQSTQTDLEKTERIVVSYEYYNIKHKHTSIRETLENGETRMKMLNEFVKKTSEEIDSLNEDVEEIKLQKEKELHKEGTISKLENKENGLLNEISRLKTSLSIKVENLNDTTEKSKALESEIASSSAKLIEKKSAYANTEKDYKMVQEQLSKQRDLYKRKEELVSTLTTGISSTGAADGGYNAQLAKAKTELNEVSLAIKKSSMKMELLKKELLTIEPKLKEATKDNELNVKHVKQCQETCDKLRARLVEYGFDPSRIKDLKQREDKLKSHYYQTCKNSEYLKRRVTNLEFNYTKPYPNFEASFVHGVVGQLFQIDNDNIRYATALQTCAGGRLFNVVVQDSQTATQLLERGRLRKRVTIIPLDKIYTRPISSQVLDLAKKIAPGKVELAINLIRFDESITKAMEFIFGNSLICEDPETAKKITFHPKIRARSITLQGDVYDPEGTLSGGSRNTSESLLVDIQKYNQIQKQIETIQADLNHVTEELQTQYATSQKTKTIQSDLNLSLHKLDLAKRNLDANPSSQIIARNEEILRDIGECENEIKTKQMSLKKCQEEVSTIEKDMKEYDSDKGSKLNELKKELKLLAKELEEQESESERKYDLFQNLELETEQLSSELDSNKTLLHNHLKSIESLKLENSDLEGKIRGVEDDLVTVQTELNEEKKRLMDIDDELNELETLIKKKQDEKKSSELELQKLVHDLNKYKSNTNNMEKIIEDLRQKHEFLEDFDLVRNIVKQNEGIDLDTYRERSKQLNEKFQELRKKVNPNIMNMIENVEKKEAALKTMIKTIEKDKMKIQETISKLNEYKRETLVKTWEKVTLDFGNIFADLLPNSFAKLVPCEGKDVTQGLEVKVKLGNIWKESLIELSGGQRSLIALSLIMALLQFRPAPMYILDEVDAALDLSHTQNIGHLIKTRFKGSQFIVVSLKEGMFANANRVFRTRFQDGTSVVSIM
notes: Smc2, subunit of the budding yeast condensin complex; The holo-complex was purified over HisTrap and Strep-Tactin; also called condensin subunit Smc2
